T1: FGF14 (1b isoform), wild type, fused to split firefly luciferase fragments (UniProt Q92915)
T1 sequence: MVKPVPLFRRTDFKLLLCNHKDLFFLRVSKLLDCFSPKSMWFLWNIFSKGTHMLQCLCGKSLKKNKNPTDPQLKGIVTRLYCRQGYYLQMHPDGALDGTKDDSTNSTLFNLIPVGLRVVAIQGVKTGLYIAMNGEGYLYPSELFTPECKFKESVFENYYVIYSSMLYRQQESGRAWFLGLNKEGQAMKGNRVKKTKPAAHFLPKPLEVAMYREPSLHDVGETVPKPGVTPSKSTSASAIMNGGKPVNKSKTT


Key:
Test in all cases: split reporter
[1] = target: T1, FGF14 (1b isoform), wild type, fused to split firefly luciferase fragments
[2] = target: FGF14^Y153N/V155N (1b isoform) fused to split firefly luciferase fragments
[3] = target: T1, FGF14 (1b isoform), wild type, fused to split firefly luciferase fragments; remark: listed apart in the source
[4] = target: FGF14^Y153N/V155N (1b isoform) fused to split firefly luciferase fragments; details: split reporter (BiFC, NanoBiT)

Row | Molecule | % maximal luminescence against the FGF14:FGF14 dimer [1] [%] | % maximal luminescence against the FGF14:FGF14 dimer [2] [%] | % maximal luminescence of CLuc-FGF14:FGF14-NLuc left with 10 uM peptide [3] [%] | % maximal luminescence of the FGF14^Y153N/V155N:FGF14 heterodimer left with FLPK [4] [%]
1 | FGF14^Y153N/V155N (1b isoform) fused to split firefly luciferase fragments (natural protein) | 109 | 136 |  | 
2 | Ac-FLPK-NH2 [Ac-FLPK-NH2] |  |  | 75 | 90.8 ± 5.1

Source: publication PMC4809639
